In the assay the target is human kallikrein 7 variant hK7-2.7 (human) (UniProt P49862).

Where only a bound is given, the exact number is not on record here.

Sequence of UniProt P49862 (P49862 30-253 Q52R/N119S/K129G/V157G/L189Q/Q228R/G233V): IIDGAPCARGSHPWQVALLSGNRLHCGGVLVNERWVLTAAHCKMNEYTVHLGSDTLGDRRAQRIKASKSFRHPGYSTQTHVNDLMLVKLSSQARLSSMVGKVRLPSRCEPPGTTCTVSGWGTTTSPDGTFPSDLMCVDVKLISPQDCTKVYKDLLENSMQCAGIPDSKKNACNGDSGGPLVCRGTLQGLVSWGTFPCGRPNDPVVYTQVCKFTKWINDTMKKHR

Consider “lympho-epithelial Kazal-type related inhibitor (LEKTI) fragment consisting of domains 10–15 (domain or fragment)”, for which the inhibition of Aβ8 FRET reporter cleavage (5 nM protease, 200 nM substrate, 37°C) is > 130 nM.

The values above are taken from paper PMC13012646.
